The source of these data is US7981863B2, “Treatment of Parkinson's disease with PDGF” (Neuronova AB, priority 2001, dated 2011).

This assay concerns Healthy Rats. The assay can be described thus: ICV infusion in healthy rats, BrdU / NeuN labelling. The class given is in vivo, rat. As to the method: Male rats (12 hours light/dark regime; feeding and drinking ad libitum; 5 animals in standard cage) were infused (Alzet minipumps) in the left lateral ventricle with human recombinant PDGF-BB for 7 days at a daily dose of 36 ng/day (8 animals/group). Human recombinant BDNF (brain derived neurotrophic factor) was used as a positive control (Pencea V et al., J. Neurosci Sep. 1 (2001), 21(17):6706-17). Bromodeoxyuridine (BrdU) was also included in the infusion vehicle (artificial cerebrospinal fluid) to enable measurement of proliferation by quantitation of BrdU incorporation in the DNA. Animals were sacrificed at 7 (proliferation) or 28 days (neurogenesis) after start of treatment and brains were dissected and prepared for sectioning and immunohistochemistry (Pencea V et al., J. Neurosci Sep. 1 (2001), 21(17):6706-17).
Proliferation was measured by BrdU incorporation and diaminobenzidine (DAB) staining of HRP conjugated secondary antibodies (FIG. 7). Cells were counted in a phase contrast microscope. Neural phenotype was assessed by staining for neuronal marker NeuN by immunocytochemistry using a fluorescence readout. The secondary antibodies were labeled with FITC or Alexa Fluor568. In double staining analyses designed to measure neurogenesis, BrdU and NeuN were quantitated by fluorescence (above) and counting of cells was done in a confocal microscope. For further experimental details, see Pencea V et al., J. Neurosci Sep. 1 (2001), 21(17):6706-17. A number of brain regions were analysed.

B1: PDGF-BB: human recombinant PDGF-BB, platelet derived growth factor B-chain homodimer (protein)
chain: SLGSLTIAEPAMIAECKTRTEVFEISRRLIDRTNANFLVWPPCVEVQRCSGCCNNRNVQCRPTQVQLRPVQVRKIEIVRKKPIFKKATVTLEDHLACKCETVAAARPVT
For B1, under “7-day group, ICV infusion 7 days, 36 ng/day, mean of two sections, mean +/- sem”, the “Cell count (BrdU, proliferation) along the lateral ventricle wall” value is 216 +/−25. Moreover, for the setting “28-day group”, the “number of proliferating cells in the subventricular zone” value is listed as “no such statistically significant effect”. Besides, for the setting “28-day group, in comparison to vehicle treated animals”, the “neurogenesis in the striatum” value is “significantly increase neurogenesis”. Besides, under “28-day group, in comparison to vehicle-treated animals”, the “BrdU positive cells in the dentate gyrus, the CA1 and the alveus” value is listed as “no significant effect”. The “BrdU positive cells in the striatum” value (28-day group, cells counted in 300 × 300 μm squares) is recorded as 40 ± 6.8 (p < 0.01 to vehicle, ANOVA).
